Consider seven sequences from PMC6072106.

What all share (conditions): EMSA: 24 mM Tris/HCl pH 7.5, 50 mM KCl, 10 mM MgCl2, 1 mM CaCl2, 0.1 mM EDTA, 5% glycerol, 0.05 ug/ul BSA, 0.05 ug/ul salmon sperm DNA, 20 ul, 20 min room …
Background: A gel shift assay detects complexes by their altered migration in electrophoresis.

The target in data set [1] is T1, Fis (UniProt Q88DK4).
T1 sequence: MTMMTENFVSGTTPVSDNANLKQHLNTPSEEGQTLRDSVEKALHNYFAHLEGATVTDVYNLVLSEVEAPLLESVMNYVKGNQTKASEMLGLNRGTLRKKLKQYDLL
The data set is described as follows: DNase I footprinting.

Data set [2] concerns the target T1, Fis. Nature of the data set: EMSA with LF2 competition.
Data set [3] addresses T1, Fis. The data set is described as follows: EMSA.
In data set [4] the target is T1, Fis. Nature of the data set: competition.

On to “AGGATCCAATCGCCAGATGAACTTTACAAGGCGCAGAACAGCGAAATTCGAGCGCAGCAGTGGCACCGACCTTAATTATCATTACAGGGTTTGCAATTCGTTACCCGCTGCAAGAAACATAATTAACAAAACCGCGCGTAATGCCCGAATTTCAAGGCTCTCAGCCAGTTACGAACG (double strand) [Fis-nuo3-Fis-nuo4-mut]”, for which the binding entry in data set [1] and in data set [2] was “binds more weakly” throughout.

With “AGGATCCAATCGCCAGATGAACTTTACAAGGCGCAGAACAGCGAAATTCGAGCGCAGCAGTTCAAATGATATTAATTATCATTACAGGGTTTGCAATTCGTTACCCGCTGCAAGAAACATAAGTCAGCCAACCGCGCGTAATGCCCGAATTTCAAGGCTCTCAGCCAGTTACGAACG (double strand) [Fis-nuo3-mut-Fis-nuo4]”, the binding result in data set [1] and in data set [2] was “binds more weakly” each time.

For the sequence “AGGATCCAATCGCCAGATGAACTTTACAAGGCGCAGAACAGCGAAATTCGAGCGCAGCAGTTCAAATGATATTAATTATCATTACAGGGTTTGCAATTCGTTACCCGCTGCAAGAAACATAATTAACAAAACCGCGCGTAATGCCCGAATTTCAAGGCTCTCAGCCAGTTACGAACG (double strand) [nuoA promoter Fis-nuo3-Fis-nuo4 (170 bp)]”, the binding result in data set [3] and in data set [1] was “binds” in each case.

Consider “CGTGGGGTTATGCCGAGATAAGGCAAAAATTAGGACATTCGTTCTGTAAATATATGATTTAAAAGGTTATTCGAGAGGCCGTGGCTTGCTGGTCATCCACCGTCTGAGCTCAGC (double strand) [RF1]”, for which the binding entry in data set [4] is reported as “no binding”.

With “GCGCGTAATGCCCGAATTTCAAGGCTCTCAGCCAGTTACGAACGTTTGTCCTACCTAATCCTACGAATAAATTTGCGACAGAAATTTTACTTGCACCAGGTTTACCCATAAAATCAGCGCGATTGATCCGGCTGCGACATTTGGTCACTG (double strand) [Fis-nuo1-Fis-nuo2-mut]”, the binding entry in data set [1] and in data set [2] was “binds more weakly” throughout.

For the sequence “GCGCGTAATGCCCGAATTTCAAGGCTCTCAGCCAGTTACGAACGTTTTTTGTACTTAATCCTACGAATAAATTTGCGACAGAAATTTTACTTGCACCAGGTTTACCCATAAAATCAGCGCGATTGATCCGGCTGCGACATTTGGTCACTG (double strand) [nuoA promoter Fis-nuo1-Fis-nuo2 (150 bp)]”, the binding result in data set [3] and in data set [1] was “binds” each time.

As for “GCGCGTAATGCCCGAATTTCAAGGCTCTCAGCCAGTTACGAACGTTTTTTGTACTTAATCCTACGAATAAGGTTGCGAGTCGAATTTTACTTGCACCAGGTTTACCCATAAAATCAGCGCGATTGATCCGGCTGCGACATTTGGTCACTG (double strand) [Fis-nuo1-mut-Fis-nuo2]”, the binding entry in data set [1] is on record as “binds more weakly”.
